According to patent US20100075374A1, “Methods for capturing nascent proteins” (AMBERGEN, INC., priority 2007, published 2010):
Each block holds one compound with its values, some of them ahead of it.

Key:
[1] = target: T1, PKCα (Homo sapiens, UniProt P17252); assay: PMA mediated PKCα sub-cellular translocation measured by kinase activity after photocleavable antibody isolation; assay type: cell-based; conditions: HeLa cells, 200 nM PMA for 5 min, n=4
T1 construct: isolate and photo-release endogenous PKCa from the undiluted detergent fractionated HeLa cell extracts; endogenous in cells; host or cells: HeLa cells (ATCC)
Experimental: Cultured HeLa cells (ATCC; Manassas, Va.) were stimulated for 5 min with 200 nM Phorbol-12-Myristate-13-Acetate (PMA; EMD Biosciences, Inc., San Diego, Calif.) and subsequently detergent fractionated into sub-cellular compartments according to reported procedures [Ramsby et al. (1994) Electrophoresis 15, 265-277; Ramsby & Makowski. (1999) Methods Mol Biol 112, 53-66; Chiang et al. (2000) J Biochem Biophys Methods 46, 53-68]. PMA is a potent activator of PKCα and is well known to cause translocation of the kinase from the cytosolic to the membrane sub-cellular compartments [Ross & Joyner. (1997) Endothelium 5, 321-332; Bazan & Rapoport. (1996) JPharmacol Toxicol Methods 36, 87-95; Yazlovitskaya & Melnykovych. (1995) Cancer Lett 88, 179-183].
A photocleavable antibody conjugated solid affinity matrix was prepared and used to isolate and photo-release the antigen into solution essentially as described in Example 2 except that in this case, a photocleavable anti-IgG secondary antibody was used to immobilize the unlabeled primary antibody onto the solid affinity matrix. This antibody affinity matrix was used to isolate and photo-release endogenous PKCa from the undiluted detergent fractionated HeLa cell extracts. […]

[2] = target: T2, human recombinant ZAP-70 tyrosine kinase (Homo sapiens, UniProt P43403); assay: kinase substrate profiling on photo-transferred proteins, phosphotyrosine detection; assay type: biochemical; conditions: plus ATP kinase reaction, 30 min at 37° C.
T2 construct: purchased Invitrogen Corporation
T2 sequence (P43403 1-619): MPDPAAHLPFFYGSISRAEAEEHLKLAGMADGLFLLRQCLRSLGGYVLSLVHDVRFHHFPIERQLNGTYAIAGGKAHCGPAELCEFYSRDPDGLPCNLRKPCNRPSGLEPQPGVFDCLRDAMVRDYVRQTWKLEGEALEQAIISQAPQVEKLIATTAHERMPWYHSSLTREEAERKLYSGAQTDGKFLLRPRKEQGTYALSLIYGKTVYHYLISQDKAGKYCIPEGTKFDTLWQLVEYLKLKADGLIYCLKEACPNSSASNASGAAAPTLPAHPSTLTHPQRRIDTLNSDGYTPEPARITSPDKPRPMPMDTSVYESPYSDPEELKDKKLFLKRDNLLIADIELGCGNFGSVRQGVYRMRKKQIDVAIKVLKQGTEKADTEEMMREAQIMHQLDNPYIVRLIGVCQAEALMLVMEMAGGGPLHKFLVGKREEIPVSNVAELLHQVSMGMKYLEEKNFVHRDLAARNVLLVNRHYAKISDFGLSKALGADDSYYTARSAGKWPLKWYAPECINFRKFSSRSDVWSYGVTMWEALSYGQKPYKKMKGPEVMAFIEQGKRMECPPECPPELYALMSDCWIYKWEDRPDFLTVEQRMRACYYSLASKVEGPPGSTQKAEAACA

[3] = target: T3, human recombinant Src pp^60 tyrosine kinase (Homo sapiens, UniProt P12931); assay: as above; assay type: biochemical; conditions: plus ATP kinase reaction, 30 min at 37° C.
T3 construct: purchased Invitrogen Corporation

[4] = target: T4, MDM2 bait (Homo sapiens, UniProt Q00987); assay: p53-MDM interaction assay, pre-formed complexes of cell-free expressed proteins, contact photo-transfer; assay type: binding; conditions: complexes formed before contact photo-transfer
T4 construct: made in house; host or cells: rabbit reticulocyte lysate, coupled cell-free transcription/translation
Experimental: BODIPY-FL-tRNA^COMPLETE was used for fluorescence labeling (at 2 μM) instead of BODIPY-FL-tRNA^Lys. The cell-free expressed p53 “probe” was labeled only with BODIPY-FL using the BODIPY-FL-tRNA^COMPLETE and was not labeled with PC-biotin in any way. […] The “bait” proteins were labeled only with PC-Biotin-tRNA^COMPLETE (at 1 μM) and not with BODIPY-FL in any way. The Translation Dilution Buffer (TDB) used to stop the reaction and prepare the sample contained no BSA or other protein carrier, 10 mM DTT instead of 2 mM and additionally contained 20 mM EDTA added from a 500 mM pH 8.0 stock and 4 mM cycloheximide (Sigma-Aldrich, St. Louis, Mo.) added from a 355 mM stock in DMSO.
All steps were performed at +4° C. or on an ice water bath and all reagents and samples were also kept under these conditions during the procedure. […] To facilitate addition of small bead volumes to the samples, the beads were initially prepared to a 10% (v/v) bead suspension with 5 mM DTT in PBS. The samples, now 80 μL each, were then mixed with 10 μL of the 10% (v/v) bead suspension corresponding to addition of 1 μL packed bead volume. After capture on the NeutrAvidin beads for 1 hr, beads were washed by mixing 3× briefly (briefly=5 sec vortex mix) in 400 bead volumes per wash of PBS pH 7.5 and 5 mM DTT. […]

T4 sequence (Q00987 whole entry): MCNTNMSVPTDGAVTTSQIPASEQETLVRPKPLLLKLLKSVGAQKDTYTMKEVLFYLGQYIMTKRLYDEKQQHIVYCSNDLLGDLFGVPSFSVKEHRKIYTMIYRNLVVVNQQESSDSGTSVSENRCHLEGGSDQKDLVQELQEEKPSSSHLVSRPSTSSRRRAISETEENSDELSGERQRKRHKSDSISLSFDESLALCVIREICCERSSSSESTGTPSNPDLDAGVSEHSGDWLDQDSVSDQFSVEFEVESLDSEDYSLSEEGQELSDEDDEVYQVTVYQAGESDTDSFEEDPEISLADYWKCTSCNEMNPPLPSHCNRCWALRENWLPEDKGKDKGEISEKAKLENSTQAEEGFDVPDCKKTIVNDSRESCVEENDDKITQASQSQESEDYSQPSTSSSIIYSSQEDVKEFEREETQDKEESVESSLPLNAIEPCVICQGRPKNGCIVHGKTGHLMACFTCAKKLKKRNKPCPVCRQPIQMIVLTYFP

Compound: CCCCCCCCCCCCCC(=O)O[C@@H]1[C@@H](C)[C@@]2(O)[C@@H](C=C(CO)C[C@]3(O)C(=O)C(C)=C[C@@H]23)[C@@H]2C(C)(C)[C@]12OC(C)=O [PMA, Phorbol-12-Myristate-13-Acetate]
PKCα distribution, membrane, based on kinase activity ([1]; baseline 21±2% membrane): 84±3%
PKCα distribution, cytosol, based on kinase activity ([1]; baseline 79±7% cytosol): 16±4%

phosphorylation by ZAP-70 [2]: does not phosphorylate
phosphorylation by Src pp^60 [3]: significant phosphorylation
Compound: CK: cell-free expressed human casein kinase II, contact photo-transferred to microarray

binding of cell-free expressed p53 probe to MDM bait [4]: selective binding
Compound: p53 “probe”: cell-free expressed human p53 labeled only with BODIPY-FL using BODIPY-FL-tRNA COMPLETE
